Reference: patent US20240018502A1

Molecular target: plasma purified human complement protein C3 (human) (UniProt P01024)
Assay: cell-based or functional assay

Sequence of plasma purified human complement protein C3 (human) (P01024 23-667, chain 1 of 2): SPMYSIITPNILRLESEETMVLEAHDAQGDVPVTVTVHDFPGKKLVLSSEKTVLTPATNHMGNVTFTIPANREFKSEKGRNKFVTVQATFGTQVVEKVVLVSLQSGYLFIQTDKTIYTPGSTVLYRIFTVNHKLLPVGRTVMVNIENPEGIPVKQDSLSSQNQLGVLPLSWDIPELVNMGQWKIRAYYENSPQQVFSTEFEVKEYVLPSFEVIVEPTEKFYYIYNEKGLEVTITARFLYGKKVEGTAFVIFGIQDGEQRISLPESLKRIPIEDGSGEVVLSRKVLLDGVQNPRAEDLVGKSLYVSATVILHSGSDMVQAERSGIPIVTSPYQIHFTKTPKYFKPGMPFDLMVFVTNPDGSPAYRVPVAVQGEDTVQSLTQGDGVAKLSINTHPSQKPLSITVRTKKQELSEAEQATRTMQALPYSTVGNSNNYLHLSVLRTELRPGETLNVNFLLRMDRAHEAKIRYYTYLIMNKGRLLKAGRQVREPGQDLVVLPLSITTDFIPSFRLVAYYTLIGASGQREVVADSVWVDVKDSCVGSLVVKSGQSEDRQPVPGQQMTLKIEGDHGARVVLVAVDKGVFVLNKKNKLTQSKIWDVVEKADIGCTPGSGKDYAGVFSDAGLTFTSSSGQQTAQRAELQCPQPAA
Sequence of plasma purified human complement protein C3 (human) (P01024 672-1663, chain 2 of 2): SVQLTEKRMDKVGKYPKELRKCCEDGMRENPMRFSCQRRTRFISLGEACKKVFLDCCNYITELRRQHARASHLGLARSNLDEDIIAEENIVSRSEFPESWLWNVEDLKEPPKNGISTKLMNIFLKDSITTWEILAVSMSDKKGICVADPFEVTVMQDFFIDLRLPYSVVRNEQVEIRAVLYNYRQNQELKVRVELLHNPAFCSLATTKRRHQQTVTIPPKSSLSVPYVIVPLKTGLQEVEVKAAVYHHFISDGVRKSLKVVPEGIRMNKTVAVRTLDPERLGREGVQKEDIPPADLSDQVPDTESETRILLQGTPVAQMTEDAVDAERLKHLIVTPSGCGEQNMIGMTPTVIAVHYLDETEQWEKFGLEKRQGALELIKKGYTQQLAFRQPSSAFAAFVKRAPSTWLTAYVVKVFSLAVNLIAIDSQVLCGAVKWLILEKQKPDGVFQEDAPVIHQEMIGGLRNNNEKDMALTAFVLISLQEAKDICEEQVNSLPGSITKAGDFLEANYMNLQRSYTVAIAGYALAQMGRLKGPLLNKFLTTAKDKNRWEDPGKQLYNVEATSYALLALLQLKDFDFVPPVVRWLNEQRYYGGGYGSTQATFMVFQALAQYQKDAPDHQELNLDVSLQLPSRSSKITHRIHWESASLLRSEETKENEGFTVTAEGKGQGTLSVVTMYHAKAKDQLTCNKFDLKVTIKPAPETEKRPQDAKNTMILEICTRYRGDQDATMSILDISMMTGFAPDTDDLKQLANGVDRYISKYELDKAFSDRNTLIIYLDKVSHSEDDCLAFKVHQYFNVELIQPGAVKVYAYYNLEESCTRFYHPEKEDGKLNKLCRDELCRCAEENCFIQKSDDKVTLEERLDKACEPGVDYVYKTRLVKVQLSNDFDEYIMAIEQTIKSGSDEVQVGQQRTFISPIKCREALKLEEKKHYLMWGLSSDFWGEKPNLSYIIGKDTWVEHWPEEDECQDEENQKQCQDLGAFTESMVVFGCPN

B1: MTSP-1 protease domain Q38Y/I41S/D60bT/F60eR/Y60gW/D96M/F97N/T98G/F99L/C122S/G151N/Q175L (enzyme)
chain: VVGGTDADEGEWPWQVSLHALGYGHSCGASLISPNWLVSAAHCYIDTRGRRWSDPTQWTAFLGLHDQSQRSAPGVQERRLKRIISHPFFNMNGLDYDIALLELEKPAEYSSMVRPISLPDASHVFPAGKAIWVTGWGHTQYGGTNALILQKGEIRVINQTTCENLLPQLITPRMMCVGFLSGGVDSCQGDSGGPLSSVEADGRIFQAGVVSWGDGCAQRNKPGVYTRLPLFRDWIKENTGV
  EC50 hC3 cleavage: 1.08 nM

B2: MTSP-1 protease domain Q38H/I41S/D60bT/F60eS/Y60gW/D96K/F97G/ins97aV/T98P/F99L/M117K/C122S/G151H/Q175L/Q192D (enzyme)
chain: VVGGTDADEGEWPWQVSLHALGHGHSCGASLISPNWLVSAAHCYIDTRGSRWSDPTQWTAFLGLHDQSQRSAPGVQERRLKRIISHPFFNKGVPLDYDIALLELEKPAEYSSKVRPISLPDASHVFPAGKAIWVTGWGHTQYGGTHALILQKGEIRVINQTTCENLLPQLITPRMMCVGFLSGGVDSCDGDSGGPLSSVEADGRIFQAGVVSWGDGCAQRNKPGVYTRLPLFRDWIKENTGV
  EC50 hC3 cleavage: 4.75 nM

B3: MTSP-1 protease domain L36Q/Q38H/I41S/D60bT/F60eS/Y60gW/D96K/F97G/ins97aV/T98P/F99L/C122S/G151H/Q175L/Q192D (enzyme)
chain: VVGGTDADEGEWPWQVSLHAQGHGHSCGASLISPNWLVSAAHCYIDTRGSRWSDPTQWTAFLGLHDQSQRSAPGVQERRLKRIISHPFFNKGVPLDYDIALLELEKPAEYSSMVRPISLPDASHVFPAGKAIWVTGWGHTQYGGTHALILQKGEIRVINQTTCENLLPQLITPRMMCVGFLSGGVDSCDGDSGGPLSSVEADGRIFQAGVVSWGDGCAQRNKPGVYTRLPLFRDWIKENTGV
  EC50 hC3 cleavage: 5.49 nM

B4: MTSP-1 Q38H/I41S/D60bT/F60eS/Y60gW/D96V/F97G/ins97aV/T98P/F99L/C122S/G151H/Q175L/Q192D (enzyme)
chain: VVGGTDADEGEWPWQVSLHALGHGHSCGASLISPNWLVSAAHCYIDTRGSRWSDPTQWTAFLGLHDQSQRSAPGVQERRLKRIISHPFFNVGVPLDYDIALLELEKPAEYSSMVRPISLPDASHVFPAGKAIWVTGWGHTQYGGTHALILQKGEIRVINQTTCENLLPQLITPRMMCVGFLSGGVDSCDGDSGGPLSSVEADGRIFQAGVVSWGDGCAQRNKPGVYTRLPLFRDWIKENTGV
  EC50 of hC3 cleavage: 2.85 nM

B5: MTSP-1 protease domain Q38H/I41S/D60bT/F60eS/Y60gW/D96K/F97G/ins97aV/T98P/F99L/C122S/T150S/G151H/Q175L/Q192D/Q209L (enzyme)
chain: VVGGTDADEGEWPWQVSLHALGHGHSCGASLISPNWLVSAAHCYIDTRGSRWSDPTQWTAFLGLHDQSQRSAPGVQERRLKRIISHPFFNKGVPLDYDIALLELEKPAEYSSMVRPISLPDASHVFPAGKAIWVTGWGHTQYGGSHALILQKGEIRVINQTTCENLLPQLITPRMMCVGFLSGGVDSCDGDSGGPLSSVEADGRIFLAGVVSWGDGCAQRNKPGVYTRLPLFRDWIKENTGV
  EC50 hC3 cleavage: 2.88 nM

B6: MTSP-1 protease domain Q38H/I41S/D60bT/F60eS/Y60gW/D96K/F97G/ins97aA/T98P/F99L/C122S/G151H/Q175L/Q192D (enzyme)
chain: VVGGTDADEGEWPWQVSLHALGHGHSCGASLISPNWLVSAAHCYIDTRGSRWSDPTQWTAFLGLHDQSQRSAPGVQERRLKRIISHPFFNKGAPLDYDIALLELEKPAEYSSMVRPISLPDASHVFPAGKAIWVTGWGHTQYGGTHALILQKGEIRVINQTTCENLLPQLITPRMMCVGFLSGGVDSCDGDSGGPLSSVEADGRIFQAGVVSWGDGCAQRNKPGVYTRLPLFRDWIKENTGV
  EC50 hC3 cleavage: 1.43 nM

B7: MTSP-1 protease domain I41G/F97A/F99L/C122S/G151H/Q175L/Q192G/D217L (enzyme)
chain: VVGGTDADEGEWPWQVSLHALGQGHGCGASLISPNWLVSAAHCYIDDRGFRYSDPTQWTAFLGLHDQSQRSAPGVQERRLKRIISHPFFNDATLDYDIALLELEKPAEYSSMVRPISLPDASHVFPAGKAIWVTGWGHTQYGGTHALILQKGEIRVINQTTCENLLPQLITPRMMCVGFLSGGVDSCGGDSGGPLSSVEADGRIFQAGVVSWGLGCAQRNKPGVYTRLPLFRDWIKENTGV
  EC50 hC3 cleavage: 47.8 nM

B8: MTSP-1 protease domain I41G/F97S/F99L/C122S/G151N/Q175I/Q192T/D217T (enzyme)
chain: VVGGTDADEGEWPWQVSLHALGQGHGCGASLISPNWLVSAAHCYIDDRGFRYSDPTQWTAFLGLHDQSQRSAPGVQERRLKRIISHPFFNDSTLDYDIALLELEKPAEYSSMVRPISLPDASHVFPAGKAIWVTGWGHTQYGGTNALILQKGEIRVINQTTCENLLPQIITPRMMCVGFLSGGVDSCTGDSGGPLSSVEADGRIFQAGVVSWGTGCAQRNKPGVYTRLPLFRDWIKENTGV
  EC50 hC3 cleavage: 84.4 nM

B9: MTSP-1 protease domain I41R/F97A/F99L/C122S/G151N/Q175R/Q192G/D217Q (enzyme)
chain: VVGGTDADEGEWPWQVSLHALGQGHRCGASLISPNWLVSAAHCYIDDRGFRYSDPTQWTAFLGLHDQSQRSAPGVQERRLKRIISHPFFNDATLDYDIALLELEKPAEYSSMVRPISLPDASHVFPAGKAIWVTGWGHTQYGGTNALILQKGEIRVINQTTCENLLPQRITPRMMCVGFLSGGVDSCGGDSGGPLSSVEADGRIFQAGVVSWGQGCAQRNKPGVYTRLPLFRDWIKENTGV
  EC50 hC3 cleavage: 401 nM

B10: MTSP-1 protease domain I41S/F97E/F99L/C122S/G151N/Q175G/Q192R/D217A (enzyme)
chain: VVGGTDADEGEWPWQVSLHALGQGHSCGASLISPNWLVSAAHCYIDDRGFRYSDPTQWTAFLGLHDQSQRSAPGVQERRLKRIISHPFFNDETLDYDIALLELEKPAEYSSMVRPISLPDASHVFPAGKAIWVTGWGHTQYGGTNALILQKGEIRVINQTTCENLLPQGITPRMMCVGFLSGGVDSCRGDSGGPLSSVEADGRIFQAGVVSWGAGCAQRNKPGVYTRLPLFRDWIKENTGV
  EC50 hC3 cleavage: 74.3 nM

B11: MTSP-1 protease domain I41G/F97S/F99L/C122S/G151T/Q175R/Q192A/D217Y (enzyme)
chain: VVGGTDADEGEWPWQVSLHALGQGHGCGASLISPNWLVSAAHCYIDDRGFRYSDPTQWTAFLGLHDQSQRSAPGVQERRLKRIISHPFFNDSTLDYDIALLELEKPAEYSSMVRPISLPDASHVFPAGKAIWVTGWGHTQYGGTTALILQKGEIRVINQTTCENLLPQRITPRMMCVGFLSGGVDSCAGDSGGPLSSVEADGRIFQAGVVSWGYGCAQRNKPGVYTRLPLFRDWIKENTGV
  EC50 hC3 cleavage: 52.8 nM

B12: MTSP-1 protease domain I41G/F97L/F99L/C122S/G151N/Q175A/Q192V/D217R (enzyme)
chain: VVGGTDADEGEWPWQVSLHALGQGHGCGASLISPNWLVSAAHCYIDDRGFRYSDPTQWTAFLGLHDQSQRSAPGVQERRLKRIISHPFFNDLTLDYDIALLELEKPAEYSSMVRPISLPDASHVFPAGKAIWVTGWGHTQYGGTNALILQKGEIRVINQTTCENLLPQAITPRMMCVGFLSGGVDSCVGDSGGPLSSVEADGRIFQAGVVSWGRGCAQRNKPGVYTRLPLFRDWIKENTGV
  EC50 hC3 cleavage: 34 nM

B13: MTSP-1 protease domain I41G/F97T/F99M/C122S/G151D/Q175T/Q192T/D217V (enzyme)
chain: VVGGTDADEGEWPWQVSLHALGQGHGCGASLISPNWLVSAAHCYIDDRGFRYSDPTQWTAFLGLHDQSQRSAPGVQERRLKRIISHPFFNDTTMDYDIALLELEKPAEYSSMVRPISLPDASHVFPAGKAIWVTGWGHTQYGGTDALILQKGEIRVINQTTCENLLPQTITPRMMCVGFLSGGVDSCTGDSGGPLSSVEADGRIFQAGVVSWGVGCAQRNKPGVYTRLPLFRDWIKENTGV
  EC50 hC3 cleavage: 45.6 nM

B14: MTSP-1 protease domain I41G/F97L/F99L/C122S/G151T/Q175M/Q192D/D217M (enzyme)
chain: VVGGTDADEGEWPWQVSLHALGQGHGCGASLISPNWLVSAAHCYIDDRGFRYSDPTQWTAFLGLHDQSQRSAPGVQERRLKRIISHPFFNDLTLDYDIALLELEKPAEYSSMVRPISLPDASHVFPAGKAIWVTGWGHTQYGGTTALILQKGEIRVINQTTCENLLPQMITPRMMCVGFLSGGVDSCDGDSGGPLSSVEADGRIFQAGVVSWGMGCAQRNKPGVYTRLPLFRDWIKENTGV
  EC50 hC3 cleavage: 36.8 nM

B15: MTSP-1 Q38H/I41S/D60bT/F60eS/Y60gW/D96K/F97D/ins97aA/T98P/F99L/C122S/G151N/Q175L/Q192D (enzyme)
chain: VVGGTDADEGEWPWQVSLHALGHGHSCGASLISPNWLVSAAHCYIDTRGSRWSDPTQWTAFLGLHDQSQRSAPGVQERRLKRIISHPFFNKDAPLDYDIALLELEKPAEYSSMVRPISLPDASHVFPAGKAIWVTGWGHTQYGGTNALILQKGEIRVINQTTCENLLPQLITPRMMCVGFLSGGVDSCDGDSGGPLSSVEADGRIFQAGVVSWGDGCAQRNKPGVYTRLPLFRDWIKENTGV
  EC50 of hC3 cleavage: 5.92 nM

B16: MTSP-1 protease domain F97S/F99L/C122S/G151N/Q175I/Q192T/D217T (enzyme)
chain: VVGGTDADEGEWPWQVSLHALGQGHICGASLISPNWLVSAAHCYIDDRGFRYSDPTQWTAFLGLHDQSQRSAPGVQERRLKRIISHPFFNDSTLDYDIALLELEKPAEYSSMVRPISLPDASHVFPAGKAIWVTGWGHTQYGGTNALILQKGEIRVINQTTCENLLPQIITPRMMCVGFLSGGVDSCTGDSGGPLSSVEADGRIFQAGVVSWGTGCAQRNKPGVYTRLPLFRDWIKENTGV
  EC50 hC3 cleavage: 524 nM

B17: MTSP-1 protease domain I41G/F99L/C122S/G151N/Q175I/Q192T/D217T (enzyme)
chain: VVGGTDADEGEWPWQVSLHALGQGHGCGASLISPNWLVSAAHCYIDDRGFRYSDPTQWTAFLGLHDQSQRSAPGVQERRLKRIISHPFFNDFTLDYDIALLELEKPAEYSSMVRPISLPDASHVFPAGKAIWVTGWGHTQYGGTNALILQKGEIRVINQTTCENLLPQIITPRMMCVGFLSGGVDSCTGDSGGPLSSVEADGRIFQAGVVSWGTGCAQRNKPGVYTRLPLFRDWIKENTGV
  EC50 hC3 cleavage: 108 nM

B18: MTSP-1 protease domain I41G/F97S/C122S/G151N/Q175I/Q192T/D217T (enzyme)
chain: VVGGTDADEGEWPWQVSLHALGQGHGCGASLISPNWLVSAAHCYIDDRGFRYSDPTQWTAFLGLHDQSQRSAPGVQERRLKRIISHPFFNDSTFDYDIALLELEKPAEYSSMVRPISLPDASHVFPAGKAIWVTGWGHTQYGGTNALILQKGEIRVINQTTCENLLPQIITPRMMCVGFLSGGVDSCTGDSGGPLSSVEADGRIFQAGVVSWGTGCAQRNKPGVYTRLPLFRDWIKENTGV
  EC50 hC3 cleavage: 860 nM

B19: MTSP-1 protease domain I41G/F97S/F99L/C122S/Q175I/Q192T/D217T (enzyme)
chain: VVGGTDADEGEWPWQVSLHALGQGHGCGASLISPNWLVSAAHCYIDDRGFRYSDPTQWTAFLGLHDQSQRSAPGVQERRLKRIISHPFFNDSTLDYDIALLELEKPAEYSSMVRPISLPDASHVFPAGKAIWVTGWGHTQYGGTGALILQKGEIRVINQTTCENLLPQIITPRMMCVGFLSGGVDSCTGDSGGPLSSVEADGRIFQAGVVSWGTGCAQRNKPGVYTRLPLFRDWIKENTGV
  EC50 hC3 cleavage: 155 nM

B20: MTSP-1 protease domain I41G/F97S/F99L/C122S/G151N/Q192T/D217T (enzyme)
chain: VVGGTDADEGEWPWQVSLHALGQGHGCGASLISPNWLVSAAHCYIDDRGFRYSDPTQWTAFLGLHDQSQRSAPGVQERRLKRIISHPFFNDSTLDYDIALLELEKPAEYSSMVRPISLPDASHVFPAGKAIWVTGWGHTQYGGTNALILQKGEIRVINQTTCENLLPQQITPRMMCVGFLSGGVDSCTGDSGGPLSSVEADGRIFQAGVVSWGTGCAQRNKPGVYTRLPLFRDWIKENTGV
  EC50 hC3 cleavage: 105 nM

B21: MTSP-1 protease domain I41G/F97S/F99L/C122S/G151N/Q175I/D217T (enzyme)
chain: VVGGTDADEGEWPWQVSLHALGQGHGCGASLISPNWLVSAAHCYIDDRGFRYSDPTQWTAFLGLHDQSQRSAPGVQERRLKRIISHPFFNDSTLDYDIALLELEKPAEYSSMVRPISLPDASHVFPAGKAIWVTGWGHTQYGGTNALILQKGEIRVINQTTCENLLPQIITPRMMCVGFLSGGVDSCQGDSGGPLSSVEADGRIFQAGVVSWGTGCAQRNKPGVYTRLPLFRDWIKENTGV
  EC50 hC3 cleavage: 107 nM
